Results: patent publication US20240400703A1 (Genmab, published 2024)
Several values for one entry are separate records, joined by “and”; a condition that tells them apart may be missing. Equal entries are not always repeated.

Key:
[1] = target: T1, human OX40 expressed on cells (human, UniProt P43489 29-277); test: cell-based or functional assay
T1 sequence: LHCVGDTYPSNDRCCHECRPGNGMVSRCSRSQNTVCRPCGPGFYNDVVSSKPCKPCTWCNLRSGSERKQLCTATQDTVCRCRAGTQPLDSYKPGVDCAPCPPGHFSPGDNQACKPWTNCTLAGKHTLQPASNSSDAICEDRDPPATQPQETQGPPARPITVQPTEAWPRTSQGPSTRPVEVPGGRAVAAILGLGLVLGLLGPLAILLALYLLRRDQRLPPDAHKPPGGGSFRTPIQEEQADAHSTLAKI

[2] = target: T1, human OX40 expressed on cells; test: flow cytometry, activated human CD4+ T cells, donor 2
Method: (§1) Healthy human donor PBMCs were purified essentially as described in Example 7. The cell concentration was adjusted to 2×10⁶ cells per mL (final concentration) in assay medium and plated in 6-well plates (Greiner, cat. no. 657160). PBMCs were stimulated with 0.3 μg/mL anti-CD3 ([…] Technologies, cat. no. 60011) and 0.5 μg/mL anti-CD28 antibodies (BioLegend, cat. no. 302934) and cultured for two days at 37° C., 5% CO₂. Next, the PBMCs were harvested, counted and brought to a concentration of 2×10⁶ cells per mL in FACS buffer 1 (DPBS with 2% heat-inactivated FBS and 2 mM ethylenediaminetetraacetic acid [EDTA]). […] After 60 min at RT, the cells were prepared for flow cytometric analyses. To this end, the cells were washed twice with 150 μL FACS buffer 1 and 30 μL/well cell-surface antibody mix (Table 9) in FACS buffer 1 containing antibody against human Fcγ antibody (Table 9) and fixable viability dye eFluor780 (1:1,500) was added. The staining procedures were carried out at 4° C. for 15-20 min protected from light. Stained cells were washed twice with 120-150 μL FACS buffer 1 (5 min, 460×g, RT) and resuspended in 60-100 μL FACS buffer 1 for direct flow cytometric analyses. Flow cytometric data were acquired on a FACSymphony A3 and analyzed with FlowJo software.

[3] = target: T1, human OX40 expressed on cells; test: flow cytometry, activated human CD8+ T cells, donor 3
Method: as §1

[4] = target: T1, human OX40 expressed on cells; test: flow cytometry, activated human CD4+ T cells, mean of 3 donors
Method: as §1

[5] = target: T2, mouse OX40 expressed on ExpiCHO-S cells (mouse, UniProt P47741 20-272); test: flow cytometry, transfected ExpiCHO-S cells, gMFI (PE)
T2 construct: full-length entry; also called OX40mm; wild-type mouse OX40
T2 sequence: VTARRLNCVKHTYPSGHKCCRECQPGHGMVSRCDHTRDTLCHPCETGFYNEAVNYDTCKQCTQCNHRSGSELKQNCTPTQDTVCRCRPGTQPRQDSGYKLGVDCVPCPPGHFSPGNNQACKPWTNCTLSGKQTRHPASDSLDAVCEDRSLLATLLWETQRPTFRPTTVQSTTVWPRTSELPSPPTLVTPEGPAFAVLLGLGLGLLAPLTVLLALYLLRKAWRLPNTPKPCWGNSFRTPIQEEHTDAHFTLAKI

[6] = target: T1, human OX40 expressed on cells; test: flow cytometry, activated human CD4+ and CD8+ T cells, 2 µg/mL sOX40L
Method: (§2) Stimulated PBMCs were pelleted, resuspended in FACS buffer 2 (DPBS with 2% heat-inactivated FBS [Sigma-Aldrich, cat. no. F7524] and 2 mM EDTA [Sigma-Aldrich, cat. no. 03690]), and seeded (100,000 cells/well) in round-bottom 96-well plates (VWR International GmbH, cat. no. 734-197). […] Next, cells were washed twice in FACS buffer, and incubated with 30 μL of the antibody panel described in Table 11 diluted in FACS buffer 2 containing 1:1,500 Fixable Viability Stain eFluor 780 at 4° C. for 20 min, protected from light. The cells were subsequently washed twice with 120-150 μL FACS buffer 2 and measured on a BD FACSCelesta flow cytometer using a BD High Throughput sampler and subsequent analysis was done using FlowJo software.

[7] = target: T1, human OX40 expressed on cells; test: flow cytometry, activated human CD4+ T cells, without sOX40L, n=3
[8] = target: T1, human OX40 expressed on cells; test: flow cytometry, loss of sOX40L (2 µg/mL) binding to activated human CD8+ T cells; competitor sOX40L
Method: as §2

[9] = target: T1, human OX40 expressed on cells; test: flow cytometry, loss of sOX40L (2 µg/mL) binding to activated human CD4+ T cells; competitor sOX40L; unit taken from the upper half of the table
Method: as §2

[10] = target: T3, human FcγRIa expressed on cells (human, UniProt P12314 16-374); test: flow cytometry, FcγRIa-transfected ExpiCHO-S cells, gMFI (PE)
T3 construct: whole, on cells; also called FcγR1a; CD64
T3 sequence (P12314 16-374): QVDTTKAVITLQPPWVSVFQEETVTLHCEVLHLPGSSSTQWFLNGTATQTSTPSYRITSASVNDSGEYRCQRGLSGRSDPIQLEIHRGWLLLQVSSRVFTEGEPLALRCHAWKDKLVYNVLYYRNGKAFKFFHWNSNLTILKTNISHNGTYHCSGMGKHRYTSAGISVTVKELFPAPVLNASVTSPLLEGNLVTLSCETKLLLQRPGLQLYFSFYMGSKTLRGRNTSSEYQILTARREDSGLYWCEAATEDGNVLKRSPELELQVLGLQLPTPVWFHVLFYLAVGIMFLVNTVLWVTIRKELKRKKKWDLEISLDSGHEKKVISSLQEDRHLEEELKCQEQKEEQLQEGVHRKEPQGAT
Method: Data were analyzed using FlowJo software and were visualized using GraphPad Prism.

B1: IgG1-CD134-003-HC6LC2-P329R-E345R (antibody)
heavy: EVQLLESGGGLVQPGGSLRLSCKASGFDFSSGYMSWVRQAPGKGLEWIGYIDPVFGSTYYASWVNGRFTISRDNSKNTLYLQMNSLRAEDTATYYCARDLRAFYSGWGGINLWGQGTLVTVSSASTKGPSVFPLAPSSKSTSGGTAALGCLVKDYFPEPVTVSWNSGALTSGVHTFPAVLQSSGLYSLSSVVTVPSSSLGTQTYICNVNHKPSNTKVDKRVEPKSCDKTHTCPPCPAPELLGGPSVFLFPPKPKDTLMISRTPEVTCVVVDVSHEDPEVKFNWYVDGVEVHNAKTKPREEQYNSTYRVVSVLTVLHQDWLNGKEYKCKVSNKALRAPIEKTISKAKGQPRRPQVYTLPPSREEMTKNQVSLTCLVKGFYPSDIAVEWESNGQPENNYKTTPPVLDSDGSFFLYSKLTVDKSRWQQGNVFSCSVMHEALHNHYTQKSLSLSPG
light: AAVLTQSPSSLSASVGDRVTITCQSSQIVVNNNFLSWYQQKPGKAPKLLIYDASNLASGVPDRFSGSGSGTDFTFTISSLQPEDIATYYCLGGYDDDAENAFGGGTKVEIKRTVAAPSVFIFPPSDEQLKSGTASVVCLLNNFYPREAKVQWKVDNALQSGNSQESVTEQDSKDSTYSLSSTLTLSKADYEKHKVYACEVTHQGLSSPVTKSFNRGEC
notes: humanized; human IgG1 with P329R and E345R (Eu numbering), kappa; also called IgG1-CD134-003-HC6LC2-RR
Average EC50 CD4+ T-cell proliferation (17 donors) [1]: 0.013 µg/ml and 0.085 nM
Average EC50 CD8+ T-cell proliferation (17 donors) [1]: 0.017 µg/ml and 0.115 nM
EC50 CD4+ T-cell proliferation, donor 1 [1]: 0.009 µg/ml and 0.057 nM
EC50 CD4+ T-cell proliferation, donor 2 [1]: 0.024 µg/ml and 0.159 nM
EC50 CD4+ T-cell proliferation, donor 3 [1]: 0.012 µg/ml and 0.084 nM
EC50 CD4+ T-cell proliferation, donor 4 [1]: 0.007 µg/ml and 0.048 nM
EC50 CD4+ T-cell proliferation, donor 5 [1]: 0.008 µg/ml and 0.053 nM
EC50 CD4+ T-cell proliferation, donor 6 [1]: 0.006 µg/ml and 0.038 nM
EC50 CD4+ T-cell proliferation, donor 7 [1]: 0.019 µg/ml and 0.129 nM
EC50 CD4+ T-cell proliferation, donor 8 [1]: 0.016 µg/ml and 0.107 nM
EC50 CD4+ T-cell proliferation, donor 9 [1]: 0.007 µg/ml and 0.048 nM
EC50 CD4+ T-cell proliferation, donor 10 [1]: 0.017 µg/ml and 0.111 nM
EC50 CD4+ T-cell proliferation, donor 11 [1]: 0.01 µg/ml and 0.067 nM
EC50 CD4+ T-cell proliferation, donor 12 [1]: 0.009 µg/ml and 0.06 nM
EC50 CD4+ T-cell proliferation, donor 13 [1]: 0.019 µg/ml and 0.125 nM
EC50 CD4+ T-cell proliferation, donor 14 [1]: 0.008 µg/ml and 0.052 nM
EC50 CD4+ T-cell proliferation, donor 15 [1]: 0.02 µg/ml and 0.132 nM
EC50 CD4+ T-cell proliferation, donor 16 [1]: 0.008 µg/ml and 0.053 nM
EC50 CD4+ T-cell proliferation, donor 17 [1]: 0.018 µg/ml and 0.119 nM
EC50 CD8+ T-cell proliferation, donor 1 [1]: 0.028 µg/ml and 0.19 nM
EC50 CD8+ T-cell proliferation, donor 2 [1]: 0.029 µg/ml and 0.195 nM
EC50 CD8+ T-cell proliferation, donor 3 [1]: 0.013 µg/ml and 0.087 nM
EC50 CD8+ T-cell proliferation, donor 4 [1]: 0.007 µg/ml and 0.048 nM
EC50 CD8+ T-cell proliferation, donor 5 [1]: 0.009 µg/ml and 0.058 nM
EC50 CD8+ T-cell proliferation, donor 6 [1]: 0.008 µg/ml and 0.051 nM
EC50 CD8+ T-cell proliferation, donor 7 [1]: 0.041 µg/ml and 0.273 nM
EC50 CD8+ T-cell proliferation, donor 8 [1]: 0.005 µg/ml and 0.033 nM
EC50 CD8+ T-cell proliferation, donor 9 [1]: 0.008 µg/ml and 0.052 nM
EC50 CD8+ T-cell proliferation, donor 10 [1]: 0.016 µg/ml and 0.109 nM
EC50 CD8+ T-cell proliferation, donor 11 [1]: 0.014 µg/ml and 0.095 nM
EC50 CD8+ T-cell proliferation, donor 12 [1]: 0.009 µg/ml and 0.058 nM
EC50 CD8+ T-cell proliferation, donor 13 [1]: 0.052 µg/ml and 0.346 nM
EC50 CD8+ T-cell proliferation, donor 14 [1]: 0.008 µg/ml and 0.054 nM
EC50 CD8+ T-cell proliferation, donor 15 [1]: 0.018 µg/ml and 0.117 nM
EC50 CD8+ T-cell proliferation, donor 16 [1]: 0.011 µg/ml and 0.074 nM
EC50 CD8+ T-cell proliferation, donor 17 [1]: 0.017 µg/ml and 0.116 nM
EC50 [2]: 0.0167 µg/mL
EC50 [3]: 0.0217 µg/mL
EC50 [4]: 0.0209 µg/mL
binding result [5]: no binding (tested: 50 µg/mL)
fold change of EC50 in the presence of sOX40L against its absence [6]: ~3 fold
EC50 [7]: 0.019 µg/mL and 0.13 nM
IC50 [8]: 0.084 µg/mL
IC50 [9]: 0.579 nM

B2: IgG1-CD134-003 (antibody)
heavy: not shown
light: AAVLTQTPSPVSAAVGGTVTIKCQSSQIVVNNNFLSWYQQKPGQPPKLLIYDASNLASGVPDRFSGSGSGTQFTLTISGVQSDDAATYYCLGGYDDDAENAFGGGTEVVVQRTVAAPSVFIFPPSDEQLKSGTASVVCLLNNFYPREAKVQWKVDNALQSGNSQESVTEQDSKDSTYSLSSTLTLSKADYEKHKVYACEVTHQGLSSPVTKSFNRGEC
notes: rabbit-human chimeric IgG1, wild-type Fc; also called parental chimeric antibody
binding result [10]: binds
